Results as given in patent publication US20050112108, “Transcriptional regulator of genes involved in the control of cell growth or cell proliferation. Use of said regulator as a therapeutic or diagnostic agent” (published 2005).

Legend:
[1] = molecular target: T1, GAAP-1 (IPCS-BF1, 2.5 kb PRDII-BF1 splice product) (Homo sapiens, UniProt P15822 SEQ:1-693); experiment: EMSA; one complex; competed by 50-fold excess; weaker than NF-kB probe in vitro; settings: tags: none (TNT reticulocyte lysate, pcDNA3.1); label: 32P
T1 chain: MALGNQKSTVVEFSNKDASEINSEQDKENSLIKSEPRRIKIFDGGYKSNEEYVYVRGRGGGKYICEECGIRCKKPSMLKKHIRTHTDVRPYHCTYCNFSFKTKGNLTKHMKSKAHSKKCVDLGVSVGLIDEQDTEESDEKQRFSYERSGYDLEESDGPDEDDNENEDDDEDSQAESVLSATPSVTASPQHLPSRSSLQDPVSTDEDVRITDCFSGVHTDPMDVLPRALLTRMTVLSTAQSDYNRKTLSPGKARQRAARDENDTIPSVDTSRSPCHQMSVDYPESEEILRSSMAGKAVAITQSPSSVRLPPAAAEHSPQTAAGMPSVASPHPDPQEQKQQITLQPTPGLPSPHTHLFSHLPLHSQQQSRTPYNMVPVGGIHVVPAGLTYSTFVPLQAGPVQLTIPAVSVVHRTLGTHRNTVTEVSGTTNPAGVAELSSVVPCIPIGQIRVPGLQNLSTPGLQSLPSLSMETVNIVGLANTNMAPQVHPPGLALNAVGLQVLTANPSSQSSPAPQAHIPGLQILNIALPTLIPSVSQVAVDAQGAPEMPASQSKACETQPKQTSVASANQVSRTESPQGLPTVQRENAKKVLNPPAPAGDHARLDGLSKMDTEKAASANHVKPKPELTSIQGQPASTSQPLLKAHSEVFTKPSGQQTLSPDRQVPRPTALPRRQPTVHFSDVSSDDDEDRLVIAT
Procedure: FIG. 5a)—EMSA using the IPCS-p53 probe and in vitro translated GAAP-1 (lane1), GAAP-1 mtZ1 (lane 3), GAAP-1 mt Z2 (lane 5), or reticulocyte lysat with the empty expression vector (lane 7). Even lanes: 50 fold molar excess of IPCS-p53 oligonucleotide was added to the reaction of the previous lane. The arrow indicates the specific complex.
Synthetic double stranded oligonucleotide probes were labelled with α-³²P dCTP (Amersham Corp.) by “filling-in” with Sequenase, and then purified on Sephadex G-50. The protein-DNA binding reactions were carried out using 5 μg of nuclear extract and 0.1 fmol of probe in 20 μl of binding buffer (20 mM Tris-HCl, 25 mM KCl, 1 mM DTT, 1 mM EDTA, 0.1% Nonidet P40, 4% glycerol, 1 mg/ml bovine serum alcbumin, μg/ml poly(dI-dC)) for 20 min at 4° C. In vitro translation products were generated by 50 μl of TNT coupled reticulocyte Lysate System (Promega) and 1 μg of the appropriate plasmid. […]
PRDII-BF1 was previously described as a protein binding to an NF-κB site whose ability to recognise the DNA is determined by two pairs of zinc fingers, one of them present in GAAP-1 (Fan 90, Gaynor, Baldwin). […] To confirm the binding specificity of the cloned GAAP-1 for the IPCS target sequence, in vitro translated GAAP-1 was incubated with labelled IPCS or NF-κB oligonucleotide and analysed by Electro Mobility Shift Assay (EMSA). […]

[2] = molecular target: T1, GAAP-1 (IPCS-BF1, 2.5 kb PRDII-BF1 …); experiment: EMSA; two complexes (possible homodimer); considerably stronger than IPCS-p53; settings: tags: none (TNT reticulocyte lysate, pcDNA3.1); label: 32P
Procedure: The protein-DNA binding reactions were carried out using 5 μg of nuclear extract and 0.1 fmol of probe in 20 μl of binding buffer (20 mM Tris-HCl, 25 mM KCl, 1 mM DTT, 1 mM EDTA, 0.1% Nonidet P40, 4% glycerol, 1 mg/ml bovine serum alcbumin, μg/ml poly(dI-dC)) for 20 min at 4° C. In vitro translation products were generated by 50 μl of TNT coupled reticulocyte Lysate System (Promega) and 1 μg of the appropriate plasmid. 5 μl of the in vitro product was used instead of the nuclear extract when required. The reaction mixture was then electrophoresed on a 6% non denaturing acrylamide gel. Competition experiments were carried out using a 50-fold molar excess of the unlabelled probe. The following oligonucleotides (and their complementary strands) were used in these studies:
PRDII-BF1 was previously described as a protein binding to an NF-κB site whose ability to recognise the DNA is determined by two pairs of zinc fingers, one of them present in GAAP-1 (Fan 90, Gaynor, Baldwin). […] To confirm the binding specificity of the cloned GAAP-1 for the IPCS target sequence, in vitro translated GAAP-1 was incubated with labelled IPCS or NF-κB oligonucleotide and analysed by Electro Mobility Shift Assay (EMSA). […] Furthermore, the affinity of in vitro translated GAAP-1 was considerably stronger for the NF-κB probe than for the IPCS-P53 probe. […]

B1: IPCS-p53 EMSA probe (dsDNA)
DNA 1: AATGCAGGATTCCTCCAAAATGATTTCCAC
DNA 2: GTGGAAATCATTTTGGAGGAATCCTGCATT
[1]
  binding result: binds

B2: NF-kB-MHC (dsDNA)
DNA 1: GATCCTCTGGGGATTCCCCATGGA
DNA 2: TCCATGGGGAATCCCCAGAGGATC
[2]
  binding result: binds
